Patent US12576154B2, “Conjugates of PSMA-binding moieties with cytotoxic agents” (PHILOCHEM AG, priority 2022, dated 2026)

Experiments:
[1] = system: HT1080.hPSMA xenografts; assay: Payload study and combination therapy with L19-IL2 in HT1080.hPSMA tumor model (tumor volume); format: in vivo, mice; conditions: conjugates 250 nmol/kg i.v. days 7 and 11; L19-IL2 2.5 mg/kg i.v. days 8, 10, 12; n=3/4
Method: (§1) HT1080.hPSMA tumor cells were grown to 90% confluence and detached with Trypsin-EDTA 0.05%. Cells were resuspended in Hank's Balanced Salt Solution (HBSS) at a 5×10^7 cells/mL density. 100 μL of HT1080.hPSMA cells (5×10^6 cells) were injected subcutaneously in the right flank of female athymic Balb/c AnNRj-Foxn1 mice (6 to 8 weeks of age). Tumors were grown until an average volumes of ˜100 mm^3 was reached.
Tumor-bearing mice were randomized into groups of 3 or 4 animals. A 50 μM solution (2% DMSO, 250 nmol/kg; 100 μL) of Conjugate 1, 5, or 6, L19-IL2 (SEQ ID NO: 10, 0.5 mg/mL, 2.5 mg/kg; 100 μL), PBS (100 μL), or L19-IL2 buffer (NaH2PO4 6.7 mM, NaCl 20 mM, KCl 1.8 mM, Mannitol 133 mM, Tween80 0.1% v/v, Glycerol 1% w/v; 100 μL) was injected intravenously (i.e., systemic administration through tail-vein) with the following schedule:
Groups of Conjugates 1, 5, or 6: two separate injections with a 3-day break in between (day 7 and day 11 after tumor implantation).
L19-IL2 group: three separate injections with a 1-day break in between (day 8, day 10, and day 12 after tumor implantation).
Combination therapy groups: two separate injections of Conjugate 1, 5, or 6 with a 3-day break in between (day 7 and day 11 after tumor implantation) and three separate injections of L19-IL2 with a 1-day break in between (day 8, day 10, and day 12 after tumor implantation). […]

[2] = system: HT1080.hPSMA tumor; assay: MMAE release from conjugates in HT1080.hPSMA tumor model (comparison and timepoint study); format: in vivo, mice; conditions: 250 nmol/kg; for MMAE release compared with Conjugate 1: 24 h after intravenous injection, HT1080.hPSMA tumor model
Method: HT1080.hPSMA tumor cells were grown to 90% confluence and detached with Trypsin-EDTA 0.05%. Cells were resuspended in Hank's Balanced Salt Solution (HBSS) at a density of 5×10^7 cells/mL. 100 μL of HT1080.hPSMA cells (5×10^6 cells) were injected subcutaneously in the right flank of female athymic Balb/c AnNRj-Foxn1 mice (6 to 8 weeks of age). Tumors were grown until ˜250 mm^3 volume (average).
Comparison study: 0.1 mL of 50 μM solutions (2% DMSO, PBS, 250 nmol/kg) of the four conjugates (1 to 4) were injected intravenously. The animals were sacrificed in groups of 3 after 24 h, and blood and the following organs were extracted: HT1080.hPSMA tumor, heart, lungs, liver, kidney, spleen, stomach. The blood fraction was centrifuged, and the plasma (supernatant) was extracted. The organs were stored at −80° C. before being used for further analysis.
Timepoint study: 0.1 mL of a 50 μM solution (2% DMSO, PBS, 250 nmol/kg) of conjugate 1 was injected intravenously into the tail vein of the mice. The animals were sacrificed in groups of 3 after 6 h, 24 h, 48 h, and 72 h, and blood and the following organs were extracted: HT1080.hPSMA tumor, heart, lungs, liver, kidney, spleen, stomach. The blood fraction was centrifuged, and the plasma (supernatant) was extracted. The organs were stored at −80° C. before being used for further analysis.
Frozen plasma (50 μL) and mouse tissues (˜50 mg) were thawed, and 500 μL of PBS was added. Samples were kept on ice, and 50 μL solution of internal standard (d8-MMAE, 50 nM) was added. Samples were then homogenized at 4° C. with a tissue lyser for 2 minutes at 30 Hz for 4 cycles. After homogenization, samples were centrifuged (21'000 g, 10 min). Subsequently, 100 μL of supernatants were collected and added to 900 μL of acetonitrile (ACN) to induce protein precipitation. After centrifugation (21'000 g, 10 min), 800 μL of supernatants were collected and dried at room temperature with a vacuum centrifuge. Pellets were then resuspended in 20 μL of an aqueous solution containing 3% ACN and 0.1% of HCOOH, and 5 μL were injected into the UHPLC-MS system. Chromatographic separation was carried out on a Hypersil Gold C18 column (100 mm×2.1 mm, 1.9 μm particle size, 175 Å pore size) column temperature was set at 50° C. and a flow rate of 700 μL/min with a gradient program from 95% A (water+0.1% HCOOH), 5% B (ACN+0.1% HCOOH) to 35% of A in 2.5 minutes, from 35% A to 5% A in 0.4 minutes and 5% A was kept for 1.3 minutes before reconditioning at 95% A. The LC system was coupled to a Q-Exactive mass spectrometer via an Ion Max HESI Source. Ionization was carried out with a spray voltage of 3.5 kV; Sheath gas 40 units; Aux gas 10 units; capillary temperature of 380° C.; Aux gas temperature 450° C.; S-lens RF level 60. The mass spectrometer was operating in targeted Single Ion Monitoring mode (t-SIM) following the molecular ion 718.5113 m/z. The detector was working in positive ionization mode with the following parameters: resolution 70'000 (FWHM at 200 m/z); AGC target of 5×10^4; maximum injection time of 200 ms; isolation window 14 m/z; isolation offset 5 m/z. Peak areas of analytes and internal standards were integrated, and corresponding ratios were calculated. The ratios were then transformed into pmol/g of wet tissue using single-concentration external calibration points and corrected by the total weight of the sample analysed. The percentage of injected dose per gram (% ID/g) was finally calculated by normalizing the value based on the total dose injected into the mouse. Data analysis was performed with Skyline v22.2.0.351.

[3] = system: HT1080.hPSMA xenografts; assay: Comparative therapy experiment in mice bearing HT1080.hPSMA xenografts (tumor volume); format: in vivo; conditions: 250 nmol/kg i.v. on days 8, 10, 12 after tumor implantation, n=5
Method: as §1, with “until” for “until an average”, “[…].” for “˜100 mm^3 was reached.”
Tumor-bearing mice were randomized into groups of 5 and 0.1 mL of 50 μM solutions (2% DMSO, PBS, 250 nmol/kg) of the four conjugates (1 to 4), or saline solution (0.9% NaCl) was injected intravenously three times with 1-day break in between (days 8, 10, and 12 after tumor implantation).

[4] = system: LNCaP tumor (PSMA+); assay: MMAE release from conjugates in LNCaP tumor model (biodistribution by LC-MS); format: in vivo, mice; conditions: 24 h after intravenous injection, LNCaP tumor model, n=3
Method: LNCaP tumor cells were grown to 80% confluence and detached with Trypsin-EDTA 0.05%. Cells were resuspended in PBS at a density of 30×10^6 cells/mL. The cell suspension was further diluted 1:1 with Matrigel. 200 μL of LNCaP cells (3×10^6 cells) were injected subcutaneously in the left flank of female athymic Balb/c AnNRj-Foxn1 mice (6 to 8 weeks of age). Tumors were grown until volumes of 200-300 mm^3 were observed.
0.1 ml of 50 μM solutions (2% DMSO, PBS) of the four Conjugates (1-4) were injected intravenously into 4 of the mice (1 mouse per SMDC). The animals were sacrificed after 24 h and the following organs were extracted: blood, LNCaP tumor (PSMA+), heart, lungs, liver, kidney, spleen, stomach. The blood fraction was centrifuged, and the plasma (supernatant) was extracted. The organs were preserved at −80° C. before being used for further analysis.
Frozen plasma or mouse tissues (˜50 mg) were thawed and treated with 600 μL of an aqueous solution containing 95% acetonitrile (ACN), and 0.1% HCOOH were added to induce protein precipitation. 50 μL of a solution of d8-MMAE, 50 nM) was added as internal standard. Samples were then homogenized with a tissue lyser for 15 minutes at 30 Hz. After homogenization, samples were centrifuged (21'000 g for 10 minutes). The supernatant was collected and dried at room temperature with a rotary evaporator. Pellets were then resuspended in 1 mL of an aqueous solution containing 3% ACN and 0.1% of TFA and subsequently purified on Oasis HLB SPE columns. Eluates were dried under vacuum at room temperature. […] Peak areas of analytes and internal standards were integrated, and corresponding ratios were calculated. The ratios were then transformed into pmol/g of wet tissue using single-concentration external calibration points and corrected by the total weight of the sample analysed. The percentage of injected dose per gram (% ID/g) was finally calculated by normalizing the value based on the total dose injected into the mouse. […]

Compound	In vivo anti-tumor activity, monotherapy (tumor volume) [1]	MMAE release compared with Conjugate 1 [2]	Therapeutic efficacy (tumor volume change) [3]	MMAE release, experiment repeated with three mice each [4]	MMAE release in tumor ([2]; 24 hours after intravenous injection, HT1080.hPSMA tumor, n=3)
L19-IL2: Immunocytokine: L19-derived scFv (binds ED-B domain of fibronectin) linked to IL2, SEQ ID NO: 10 [Conjugate L19-IL2]	only a slight tumor growth retardation	–	–	–	–
CC[C@H](C)[C@@H]([C@@H](CC(=O)N1CCC[C@H]1[C@H](OC)[C@@H](C)C(=O)N[C@H](C)[C@@H](O)c1ccccc1)OC)N(C)C(=O)[C@@H](NC(=O)[C@H](C(C)C)N(C)C(=O)CCCCCN1C(=O)CC(SC[C@H](N)C(=O)NCCCCCC(=O)NC[C@H]2CC[C@H](C(=O)N[C@@H](Cc3ccc4ccccc4c3)C(=O)NCCCC[C@H](NC(=O)N[C@@H](CCC(=O)O)C(=O)O)C(=O)O)CC2)C1=O)C(C)C (stereo partly drawn) [Conjugate 4]	–	significantly lower or no release of MMAE	didn't display any therapeutic efficacy	–	–
CC[C@H](C)[C@@H]([C@@H](CC(=O)N1CCC[C@H]1[C@H](OC)[C@@H](C)C(=O)N[C@H](C)[C@@H](O)c1ccccc1)OC)N(C)C(=O)[C@@H](NC(=O)[C@H](C(C)C)N(C)C(=O)OCc1ccc(NC(=O)[C@H](CCCNC(N)=O)NC(=O)[C@@H](NC(=O)CCCCCN2C(=O)CC(SC[C@H](N)C(=O)NCCCCCC(=O)NC[C@H]3CC[C@H](C(=O)N[C@@H](Cc4ccc5ccccc5c4)C(=O)NCCCC[C@H](NC(=O)N[C@@H](CCC(=O)O)C(=O)O)C(=O)O)CC3)C2=O)C(C)C)cc1)C(C)C (stereo partly drawn) [Conjugate 2]	–	significantly lower or no release of MMAE	tumor growth retardation but did not lead to shrinkage of the tumor mass	confirmed	1.7 % ID/g
CC[C@H](C)[C@@H]([C@@H](CC(=O)N1CCC[C@H]1[C@H](OC)[C@@H](C)C(=O)N[C@H](C)[C@@H](O)c1ccccc1)OC)N(C)C(=O)[C@@H](NC(=O)[C@H](C(C)C)N(C)C(=O)OCCSSC[C@H](N)C(=O)NCCCCCC(=O)NC[C@H]1CC[C@H](C(=O)N[C@@H](Cc2ccc3ccccc3c2)C(=O)NCCCC[C@H](NC(=O)N[C@@H](CCC(=O)O)C(=O)O)C(=O)O)CC1)C(C)C [Conjugate 3]	–	significantly lower or no release of MMAE	didn't display any therapeutic efficacy	–	–
